Assays:
Conditions in all cases: 2 nM 32P-labelled DNA; binding buffer, salt, pH and temperature only by reference (refs 50, 51); native 6% polyacrylamide gel for EMSA
[1] = target: T1, MgaSpn-His (Streptococcus pneumoniae R6) (UniProt Q8DNN5); experiment: DNase I footprinting
T1 sequence: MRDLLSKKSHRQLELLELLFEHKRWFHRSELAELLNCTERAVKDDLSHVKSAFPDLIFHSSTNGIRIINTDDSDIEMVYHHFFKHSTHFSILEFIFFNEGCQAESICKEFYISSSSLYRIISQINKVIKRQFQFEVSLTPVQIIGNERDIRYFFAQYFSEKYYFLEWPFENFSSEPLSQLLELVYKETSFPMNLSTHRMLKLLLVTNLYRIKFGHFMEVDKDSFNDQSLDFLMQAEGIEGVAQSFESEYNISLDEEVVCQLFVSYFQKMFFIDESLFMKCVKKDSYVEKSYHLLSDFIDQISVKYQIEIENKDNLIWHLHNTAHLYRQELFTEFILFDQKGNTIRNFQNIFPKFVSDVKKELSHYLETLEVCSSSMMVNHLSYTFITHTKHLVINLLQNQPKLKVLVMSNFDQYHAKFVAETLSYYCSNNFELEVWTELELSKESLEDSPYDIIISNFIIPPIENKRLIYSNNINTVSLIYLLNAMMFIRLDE

[2] = target: T2, PclR-His (Streptococcus pneumoniae R6) (UniProt Q8DP24); experiment: DNase I footprinting
T2 sequence: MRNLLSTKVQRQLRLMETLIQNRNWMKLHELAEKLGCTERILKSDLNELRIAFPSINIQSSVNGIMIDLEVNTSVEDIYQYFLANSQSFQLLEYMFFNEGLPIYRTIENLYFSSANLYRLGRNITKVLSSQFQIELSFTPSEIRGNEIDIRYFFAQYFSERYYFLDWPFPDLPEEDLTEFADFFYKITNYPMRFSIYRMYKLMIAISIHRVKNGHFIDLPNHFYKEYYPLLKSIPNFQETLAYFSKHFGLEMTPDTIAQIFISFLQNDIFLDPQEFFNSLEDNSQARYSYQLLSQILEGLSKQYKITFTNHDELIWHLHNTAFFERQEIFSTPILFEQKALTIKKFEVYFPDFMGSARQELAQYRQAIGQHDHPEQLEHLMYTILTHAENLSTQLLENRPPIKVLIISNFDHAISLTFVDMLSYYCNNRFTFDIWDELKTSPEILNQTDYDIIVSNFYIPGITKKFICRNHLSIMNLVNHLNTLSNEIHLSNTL

[3] = target: T1, MgaSpn-His (Streptococcus pneumoniae R6); experiment: EMSA
[4] = target: T2, PclR-His (Streptococcus pneumoniae R6); experiment: EMSA

Row | Sequence | binding [1] | binding [2] | binding [3] | binding [4]
1 | CGGCTAGTTCATGTAATTTCATCCAATTACGATTCTGAATTAGGGTTTCCATTAAGCGTAATTGTCTTTGAACTTTTGTGGATAAAAGGTTTCTCATACGGGTATTTCCTCCATAATTCATTATATCTTTTTTTGTCTAAGTAGTATAAAAAAATTAGAGCAAGAAAATTGTCGTTAGTAATCGGAAAAATTAGAATAATATAAGTGGCTTTTAAGTGCAAAAACAGAATATATTAATTGTTCAGAAAATATTGATTAATGCCTCAAATAGTTGTACATTG (double strand) [281-bp PpclA promoter fragment] | binds | binds |  | 
2 | CTCCTAGATAGTATTTTATAGTTTACAATGTACAACTATTTGAGGCATTAATCAATATTTTCTGAACAATTAATATATTCTGTTTTTGCACTTAAAAGCCACTTATATTATTCTAATTTTTCCGATTACTAACGACAATTTTCTTGCTCTAATTTTTTTATACTACTTAGACAAAAAAAGATATAATGAATTATGGAGGAAATACCCGTATGAGAAACCTTTTATCCACAAAAGTTCAAAGACAATTACGCTTAATGGAAACCCTAATTC (double strand) [270-bp PpclA promoter fragment] | binds | binds | binds | binds
3 | CAAATTCTTTAATTGTTGCTATTATATAATTTTTAAAATTAAAAATATAATCTTTAGACTTGAATTTGATTCTGTATTCACGCCCTCAATAGACGGTAAAATAAGAAAATTGTTTATATATTGTCTCCGTAGTGTTATTATACGAAATAAAAGATTTTAGGAAAAGTCGTTATATCATGCTATACCTATTCTTTGTGGTATAATTGCAAGAGGTTTAATCCG (double strand) [222-bp P1623B promoter fragment] |  | no binding |  | 
